B1: Retinoblastoma-associated protein (Homo sapiens), P06400 (parent)
chain: MPPKTPRKTAATAAAAAAEPPAPPPPPPPEEDPEQDSGPEDLPLVRLEFEETEEPDFTALCQKLKIPDHVRERAWLTWEKVSSVDGVLGGYIQKKKELWGICIFIAAVDLDEMSFTFTELQKNIEISVHKFFNLLKEIDTSTKVDNAMSRLLKKYDVLFALFSKLERTCELIYLTQPSSSISTEINSALVLKVSWITFLLAKGEVLQMEDDLVISFQLMLCVLDYFIKLSPPMLLKEPYKTAVIPINGSPRTPRRGQNRSARIAKQLENDTRIIEVLCKEHECNIDEVKNVYFKNFIPFMNSLGLVTSNGLPEVENLSKRYEEIYLKNKDLDARLFLDHDKTLQTDSIDSFETQRTPRKSNLDEEVNVIPPHTPVRTVMNTIQQLMMILNSASDQPSENLISYFNNCTVNPKESILKRVKDIGYIFKEKFAKAVGQGCVEIGSQRYKLGVRLYYRVMESMLKSEEERLSIQNFSKLLNDNIFHMSLLACALEVVMATYSRSTSQNLDSGTDLSFPWILNVLNLKAFDFYKVIESFIKAEGNLTREMIKHLERCEHRIMESLAWLSDSPLFDLIKQSKDREGPTDHLESACPLNLPLQNNHTAADMYLSPVRSPKKKGSTTRVNSTANAETQATSAFQTQKPLKSTSLSLFYKKVYRLAYLRLNTLCERLLSEHPELEHIIWTLFQHTLQNEYELMRDRHLDQIMMCSMYGICKVKNIDLKFKIIVTAYKDLPHAVQETFKRVLIKEEEYDSIIVFYNSVFMQRLKTNILQYASTRPPTLSPIPHIPRSPYKFPSSPLRIPGGNIYISPLKSPYKISEGLPTPTKMTPRSRILVSIGESFGTSEKFQKINQMVCNSDRVLKRSAEGSNPPKPLKKLRFDIEGSDEADGSKHLPGESKFQQKLAEMTSTRTRMQKQKMNDSMDTSNKEEK

Legend:
[1] = variants of: B1; conditions: with e2f1_human E2F1, Q01094
[2] = variants of: B1; conditions: with ve7_hpv16 E7, P03129
[3] = variants of: B1; conditions: with e2f1_human E2F1, Q01094; remark: listed apart in the source
[4] = variants of: B1; conditions: with ve7_hpv16 E7, P03129; remark: listed apart in the source

e2f1_human E2F1, Q01094, sequence (Q01094 whole entry): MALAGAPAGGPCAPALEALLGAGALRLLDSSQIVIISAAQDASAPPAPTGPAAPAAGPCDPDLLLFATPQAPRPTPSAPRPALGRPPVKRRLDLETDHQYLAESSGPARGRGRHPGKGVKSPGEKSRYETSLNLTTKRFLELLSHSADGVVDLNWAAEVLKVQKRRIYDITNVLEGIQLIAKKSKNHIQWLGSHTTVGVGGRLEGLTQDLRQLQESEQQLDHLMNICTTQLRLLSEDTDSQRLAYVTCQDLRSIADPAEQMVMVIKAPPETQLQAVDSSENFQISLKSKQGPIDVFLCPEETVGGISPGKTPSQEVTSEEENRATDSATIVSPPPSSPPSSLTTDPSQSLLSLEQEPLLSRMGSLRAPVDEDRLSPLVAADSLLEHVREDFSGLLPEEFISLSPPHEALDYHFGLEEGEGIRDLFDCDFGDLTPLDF
ve7_hpv16 E7, P03129, sequence (P03129 whole entry): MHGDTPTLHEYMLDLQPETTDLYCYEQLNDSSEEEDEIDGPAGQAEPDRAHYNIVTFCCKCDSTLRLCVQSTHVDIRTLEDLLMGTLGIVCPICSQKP

| Variant | effect of a mutation on the interaction [1] | effect of a mutation on the interaction [2] | effect of a mutation on the interaction [3] | effect of a mutation on the interaction [4] |
| --- | --- | --- | --- | --- |
| H673Y | decreasing interaction strength | decreasing interaction strength | – | – |
| M546I | increasing interaction strength | decreasing interaction strength | – | – |
| I703V | decreasing interaction strength | decreasing interaction strength | disrupting interaction strength | – |
| I703F | decreasing interaction strength | decreasing interaction strength | disrupting interaction strength | disrupting interaction strength |
| M761L | decreasing interaction strength | increasing interaction strength | – | – |
| H686Y | decreasing interaction strength | with no effect | – | decreasing interaction strength |
| R668H | increasing interaction strength | decreasing interaction strength | with no effect | – |
| M704V | decreasing interaction strength | decreasing interaction strength | disrupting interaction strength | – |
| S751C | decreasing interaction strength | decreasing interaction strength | disrupting interaction strength | – |
| S751Y | decreasing interaction strength | disrupting interaction strength | disrupting interaction strength | – |
| S588F | decreasing interaction strength | with no effect | – | decreasing interaction strength |
| K548N | disrupting interaction strength | decreasing interaction strength | – | – |
| I679F | decreasing interaction strength | decreasing interaction strength | – | – |
| E539D | decreasing interaction strength | decreasing interaction strength | disrupting interaction strength | – |
| R656W | decreasing interaction strength | decreasing interaction strength | – | – |
| T738I | decreasing interaction strength | decreasing interaction strength | disrupting interaction strength | disrupting interaction strength |
| L550I | decreasing interaction strength | increasing interaction strength | – | – |
| V754G | decreasing interaction strength | decreasing interaction strength | – | – |
| A490S | decreasing interaction strength | decreasing interaction strength | – | – |
| T664A | decreasing interaction strength | decreasing interaction strength | – | – |
| M695I | decreasing interaction strength | decreasing interaction strength | disrupting interaction strength | – |
| R741H | decreasing interaction strength | decreasing interaction strength | – | – |

| Variant | effect of a mutation on the interaction [1] | effect of a mutation on the interaction [2] | effect of a mutation on the interaction [3] | effect of a mutation on the interaction [4] |
| --- | --- | --- | --- | --- |
| R741S | decreasing interaction strength | decreasing interaction strength | – | – |
| E675Q | decreasing interaction strength | decreasing interaction strength | – | – |
| K462E | decreasing interaction strength | decreasing interaction strength | – | – |
| R451C | decreasing interaction strength | decreasing interaction strength | – | – |
| K530I | disrupting interaction strength | decreasing interaction strength | – | – |
| S648T | decreasing interaction strength | decreasing interaction strength | – | – |
| S534R | disrupting interaction strength | increasing interaction strength | – | decreasing interaction strength |
| R621S | decreasing interaction strength | decreasing interaction strength | – | – |
| R621C | – | decreasing interaction strength | decreasing interaction strength | – |
| R621P | decreasing interaction strength | decreasing interaction strength | – | – |
| S443L | decreasing interaction strength | decreasing interaction strength | – | – |
| E440K | increasing interaction strength | with no effect | decreasing interaction strength | decreasing interaction strength |
| Q444L | with no effect | increasing interaction strength | decreasing interaction strength | – |
| V654L | decreasing interaction strength | decreasing interaction strength | – | – |
| H699P | decreasing interaction strength | decreasing interaction strength | – | – |
| S612P | decreasing interaction strength | decreasing interaction strength | – | – |
| T620M | decreasing interaction strength | decreasing interaction strength | – | – |
| Y606C | decreasing interaction strength | decreasing interaction strength | – | – |
| H555Y | disrupting interaction strength | decreasing interaction strength | – | – |
| S474I | disrupting interaction strength | decreasing interaction strength | – | – |
| S474R | disrupting interaction strength | with no effect | – | decreasing interaction strength |
| E693A | decreasing interaction strength | decreasing interaction strength | – | – |
